Results on one molecule are retold here after patent publication JP2023550785A (dated 2023).

The assay deals with T1, HCoV-OC43 prefusion-stabilized spike (S) protein / S ectodomain trimer (human coronavirus OC43, UniProt P36334 14-1297).
T1 sequence: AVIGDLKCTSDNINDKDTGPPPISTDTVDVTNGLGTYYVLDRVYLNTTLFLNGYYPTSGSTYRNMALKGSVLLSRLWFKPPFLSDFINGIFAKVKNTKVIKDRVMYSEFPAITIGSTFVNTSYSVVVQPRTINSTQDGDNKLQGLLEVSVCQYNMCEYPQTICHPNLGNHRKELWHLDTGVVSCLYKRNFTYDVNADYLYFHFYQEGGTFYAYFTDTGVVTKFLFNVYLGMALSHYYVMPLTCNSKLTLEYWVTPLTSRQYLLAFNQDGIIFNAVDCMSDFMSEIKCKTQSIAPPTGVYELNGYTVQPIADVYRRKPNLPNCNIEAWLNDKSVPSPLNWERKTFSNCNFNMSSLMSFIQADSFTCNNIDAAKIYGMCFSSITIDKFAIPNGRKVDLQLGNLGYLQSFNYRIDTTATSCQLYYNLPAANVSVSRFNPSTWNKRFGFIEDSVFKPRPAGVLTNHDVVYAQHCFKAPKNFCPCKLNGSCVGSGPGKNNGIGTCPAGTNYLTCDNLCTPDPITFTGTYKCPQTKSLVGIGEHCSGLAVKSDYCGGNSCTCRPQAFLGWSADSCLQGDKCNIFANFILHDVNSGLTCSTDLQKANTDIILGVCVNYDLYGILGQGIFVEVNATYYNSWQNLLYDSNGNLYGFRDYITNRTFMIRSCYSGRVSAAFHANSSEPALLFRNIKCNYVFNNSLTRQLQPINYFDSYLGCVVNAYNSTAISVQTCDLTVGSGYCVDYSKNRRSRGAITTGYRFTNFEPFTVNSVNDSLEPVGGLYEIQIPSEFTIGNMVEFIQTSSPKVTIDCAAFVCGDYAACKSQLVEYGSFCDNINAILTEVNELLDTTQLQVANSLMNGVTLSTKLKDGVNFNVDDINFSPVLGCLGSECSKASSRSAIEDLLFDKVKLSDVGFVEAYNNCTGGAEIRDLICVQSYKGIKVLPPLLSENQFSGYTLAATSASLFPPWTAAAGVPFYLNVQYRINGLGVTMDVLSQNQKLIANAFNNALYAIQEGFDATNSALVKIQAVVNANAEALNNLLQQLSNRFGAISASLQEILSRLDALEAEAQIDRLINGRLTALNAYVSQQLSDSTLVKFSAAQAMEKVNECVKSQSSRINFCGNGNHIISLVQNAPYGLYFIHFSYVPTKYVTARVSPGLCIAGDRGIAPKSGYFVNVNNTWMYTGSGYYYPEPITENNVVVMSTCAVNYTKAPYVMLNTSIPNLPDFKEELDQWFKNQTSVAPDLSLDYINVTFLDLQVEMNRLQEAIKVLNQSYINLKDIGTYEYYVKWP

B1: antibody S2P6 (antibody 420 1 1), human monoclonal antibody expressed as recombinant human IgG1 (antibody, V domains shown)
VH: EVQLVQSGAEVKKPGASVKVSCKASGYTFTSQYMHWVRQAPGQGLEWIGIINPSGVHTSYAQKFQGRVTLTRDTSTSTLYMELSSLRSEDTAVYYCARGSPKGAFDYWGQGTLVTVSS
VL: not shown
Take B1: the Kd was found to be 0.372 nM.

What is called Kd is a measure of binding affinity in units of concentration. A low value points to tighter binding.
